According to publication PMC10767048 (Nature Communications, 2024):

Target: GPC trimer Enc nanoparticle (Lassa GPC trimer-SpyTag coupled to encapsulin-SpyCatcher) (Lassa virus, Mouse/Sierra …, stabilised)
Test: BLI
Conditions: both partners purified

B1: Fab of human LASV neutralizing antibody 37.7H (Fab, V domains shown)
VH: EVQLVQSGGGLVKAGGSLRLSCAASGFTFSTYSMNWIRQAPGKGLEWVASISSRSGSHINYVDSVKGRFTISRDNARDLLYLQMNSLRVDDSALYYCARDRRSGTSPLPLDVWGQGTTVTVFS
VL: QSALTQPASVSGSPGQSITISCTGTGSDIGGYNFVSWYQQYPGKAPKLIIYEVRIRASGVSNRFSGSKSGNTASLTISGLQAEDEADYYCNSYSIHSPWVFGGGTKLTVL
  Kd: < 1 pM
  koff: < 1e-07 s⁻¹
  kon: 81100 M⁻¹ s⁻¹
